# B1: Structural maintenance of chromosomes protein 1 (Saccharomyces cerevisiae), P32908 (parent)
# chain: MGRLVGLELSNFKSYRGVTKVGFGESNFTSIIGPNGSGKSNMMDAISFVLGVRSNHLRSNILKDLIYRGVLNDENSDDYDNEGAASSNPQSAYVKAFYQKGNKLVELMRIISRNGDTSYKIDGKTVSYKDYSIFLENENILIKAKNFLVFQGDVEQIAAQSPVELSRMFEEVSGSIQYKKEYEELKEKIEKLSKSATESIKNRRRIHGELKTYKEGINKNEEYRKQLDKKNELQKFQALWQLYHLEQQKEELTDKLSALNSEISSLKGKINNEMKSLQRSKSSFVKESAVISKQKSKLDYIFKDKEKLVSDLRLIKVPQQAAGKRISHIEKRIESLQKDLQRQKTYVERFETQLKVVTRSKEAFEEEIKQSARNYDKFKLNENDLKTYNCLHEKYLTEGGSILEEKIAVLNNDKREIQEELERFNKRADISKRRITEELSITGEKLDTQLNDLRVSLNEKNALHTERLHELKKLQSDIESANNQEYDLNFKLRETLVKIDDLSANQRETMKERKLRENIAMLKRFFPGVKGLVHDLCHPKKEKYGLAVSTILGKNFDSVIVENLTVAQECIAFLKKQRAGTASFIPLDTIETELPTLSLPDSQDYILSINAIDYEPEYEKAMQYVCGDSIICNTLNIAKDLKWKKGIRGKLVTIEGALIHKAGLMTGGISGDANNRWDKEEYQSLMSLKDKLLIQIDELSNGQRSNSIRAREVENSVSLLNSDIANLRTQVTQQKRSLDENRLEIKYHNDLIEKEIQPKITELKKKLDDLENTKDNLVKEKEALQNNIFKEFTSKIGFTIKEYENHSGELMRQQSKELQQLQKQILTVENKLQFETDRLSTTQRRYEKAQKDLENAQVEMKSLEEQEYAIEMKIGSIESKLEEHKNHLDELQKKFVTKQSELNSSEDILEDMNSNLQVLKRERDGIKEDIEKFDLERVTALKNCKISNINIPISSETTIDDLPISSTDNEAITISNSIDINYKGLPKKYKENNTDSARKELEQKIHEVEEILNELQPNARALERYDEAEGRFEVINNETEQLKAEEKKILNQFLKIKKKRKELFEKTFDYVSDHLDAIYRELTKNPNSNVELAGGNASLTIEDEDEPFNAGIKYHATPPLKRFKDMEYLSGGEKTVAALALLFAINSYQPSPFFVLDEVDAALDITNVQRIAAYIRRHRNPDLQFIVISLKNTMFEKSDALVGVYRQQQENSSKIITLDLSNYAE
# partner: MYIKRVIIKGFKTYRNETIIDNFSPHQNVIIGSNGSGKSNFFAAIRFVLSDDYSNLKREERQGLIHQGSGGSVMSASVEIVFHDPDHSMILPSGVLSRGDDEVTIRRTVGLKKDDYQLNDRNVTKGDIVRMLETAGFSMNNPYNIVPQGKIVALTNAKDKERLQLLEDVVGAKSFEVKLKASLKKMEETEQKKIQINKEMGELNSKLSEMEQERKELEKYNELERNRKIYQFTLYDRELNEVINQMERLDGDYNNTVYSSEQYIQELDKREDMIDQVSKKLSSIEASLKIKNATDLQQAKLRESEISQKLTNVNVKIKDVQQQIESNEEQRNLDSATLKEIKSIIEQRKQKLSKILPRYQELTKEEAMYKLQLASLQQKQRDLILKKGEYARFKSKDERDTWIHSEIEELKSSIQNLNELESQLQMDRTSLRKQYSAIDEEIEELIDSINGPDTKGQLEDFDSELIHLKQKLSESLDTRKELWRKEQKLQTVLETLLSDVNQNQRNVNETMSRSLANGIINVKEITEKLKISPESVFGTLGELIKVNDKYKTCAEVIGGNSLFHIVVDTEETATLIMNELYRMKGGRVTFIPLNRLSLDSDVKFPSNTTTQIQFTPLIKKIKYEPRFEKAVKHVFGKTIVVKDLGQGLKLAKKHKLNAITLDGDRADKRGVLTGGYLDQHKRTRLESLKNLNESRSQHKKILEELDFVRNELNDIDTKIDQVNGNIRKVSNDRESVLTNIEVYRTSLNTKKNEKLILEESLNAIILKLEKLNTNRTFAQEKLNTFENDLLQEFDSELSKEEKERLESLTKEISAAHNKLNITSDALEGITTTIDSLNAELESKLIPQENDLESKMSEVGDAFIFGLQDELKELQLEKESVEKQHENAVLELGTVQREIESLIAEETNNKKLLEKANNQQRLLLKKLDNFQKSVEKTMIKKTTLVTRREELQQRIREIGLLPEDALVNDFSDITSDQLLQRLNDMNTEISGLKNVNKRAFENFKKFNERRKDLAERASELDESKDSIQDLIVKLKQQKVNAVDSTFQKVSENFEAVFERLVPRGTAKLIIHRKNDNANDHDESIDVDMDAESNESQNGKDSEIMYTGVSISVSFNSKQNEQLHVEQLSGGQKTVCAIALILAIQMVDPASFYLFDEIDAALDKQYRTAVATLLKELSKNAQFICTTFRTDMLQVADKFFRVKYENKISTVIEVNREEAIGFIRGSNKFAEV
# B2: Structural maintenance of chromosomes protein 3 (Saccharomyces cerevisiae), P47037 (parent)
# chain: B1 partner
# partner: B1 chain
# Variants of: B1
# Conditions: with smc3_yeast SMC3, P47037
row,effect of a mutation on the interaction,Variant
1,disrupting interaction,M665R

# Variants of: B1
# Conditions: with smc3_yeast SMC3, P47037
# Remark: another data set of the same source
row,effect of a mutation on the interaction,Variant
1,decreasing interaction,K661D
2,decreasing interaction,K554D

# Variants of: B2
# Conditions: with smc1_yeast SMC1, P32908
row,effect of a mutation on the interaction,Variant
1,decreasing interaction,K668A
2,decreasing interaction,R665A
3,decreasing interaction,R669A
